Test: protease stability score; higher = more stable; yeast display proteolysis, trypsin and chymotrypsin;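 further: relative to predicted unfolded state with 0 unfolded-like and 1 meaning tenfold more protease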

Sequence	protease stability score
DEEKKVAMELAILLFHLWLTGDEETERRLADPDTRMDVDGKDIIGREELSKVWERILKEMRFDRWEVDRVDVVNGQVHLHGHIRGKYNGKEETREIEITINIVNGRLKSVHFNLR	1.87
SDLREEVKEFLKLLVEAFETGDEEALHELMDPNTRFRYGDKDLIGMKILERWWHELFRHLGVDRFRIELRVHHVTIINGQMHNDGTLIIRQGDKEERFKINLVIEKIDGRWIIHMVIFE	0.893
REEEENMRHFYKLMEHSLHTGDEDTLRRLFDPDARILIDGREHHGMEFILQLLHHIRLRVHDTKIEDIEHQGEWLHMHTRIDIYYNVDGQEVRVDTNVRLHAHKVDGRWFVRSYERG	0.748
SEKEEELHRALRLWLHAWETGDFHTITKLLDPHARSDVNGVELHGREEISRHHRELRTHDMRIRDEKVHMQGDYLIIILHIHTDVQIGDKRIETDLLIIIIHVKVNGRWSLRSISLEFR	0.035
SEDEEELERELRLWLSLVLTGDEDIIRELADPHARSRVNGQKSHGRENLLQLFREHMEIMGAKVVDIEEYHIQGEKIILIMRVHVGDKEYELRIEIHVFNGRLKEVNLHFK	1.52
SHEDKLNEEVARLIIHAWKTGNERLMLKLLDPHTRFEQGDKEMVGREHLLEMLRHRLEELGVDHIDFKDYKIDVVDGVLNIYLRIEIEVGDKHIDMIIKVIVLKFDGRWHVHEVRVEER	1.5
DEEDQFTEKITRILHEIHRTGDFEKWEKLADPHVKVVIGEFEQHGRETASWVIEWLARYMGIKHIELRDHRVINGVVHLEHEVKVGDKRIDLELRHFVYDGRLKETEIRFR	0.734
DEHHEILREASELFIKAWLTGDEDTMQEMMDPHTRVVFNGRTHHGWTFASEILERIKNIRIQIDDVRHQGEYVEIHFKLHIDGVRWNTKIHLHVIDGKLKRIQHTTE	1.01
SEYEHEAREVMHRLIHATETGDEEQILRMIDPHVRIDINGVELIGWRHLEEYLRRIDVVYIRIDARRVDVQGDKIRVDTEMDVEVDYDGRKFRHKEKTIIFMHKVDGRWLITSFHVL	2.7
DELERLAVETIHRFWHSLTTGNEKVLDELLDPNVRVHYNGKDIIGMEHFLKEISEIWRHVEDIKFTDNRVQGEKIRVHGHVDVKEEFDGRKIKIHTRVDYVVHKINGVWVVQSIKIH	1.05
SEEEEEMERILKYIFRLLTTGNWKELTDNLDPDVRIIIGDKTLIGREEFQRKFKDDHDKFKNMRLEIKDSHMQGDKIIIHLQVDIGDKHFEVIIYVVKINGRWHLKTLEIR	2.09
DEEEHHMKLAYDILLQTLRTGDEDLMERLIDPNVRFELLIGDFILHIHGWELVVEWDIRIARQWRIEHVHIKRYEVFNGRSRVNVKIDGVVNGRRYRFDIIELSLVIDGRVHHRSQEII	0.835
DENTESVHWLIRVLIQSARTGDEDSMRHLFDPNTKLNINGQEIHGREVAEEWANRVDHIEHVELHRIRNIDGQLDVEGKMRGTVNGKRDENRIELIIIKVDGQWFLRSIRIE	1.57
DEEHEETHRWVELFIRHHLTGDEDFIMKMLDPNTRWHIDGRTFHGMETVFDARKKERNKLGADHVRFTSFEIQGDFLHILGSIHIDGKELDEKIIIEVIDGRLNSILVTRR	0.661
DEIERRAREFFELWMQTVRTGDEHASSELLDPHVRIEQGDKSFHGRETYNEILHHLHRHMWFEIYLDSIEIQGDKIHARVNFVYIIGDKESWIDVHIHIDVINGRMKRLEIRDH	0.511
DEEEEDIDFLIHLLVKTIKTGDEHIFRRLMDPHVRMHAEGRELHGREVVVERWAKIMRELRITHIEVTHKDVVDGQVELHMRIKFRVGDKEKETRVELHAEKIDGRWVIRSIHIL	1.75
SEEHEEVHKVIEMLVRHARTGDEDYLRNQFDPNARVRFNGKDRHGRESLDEMLKQFDVIKEVRIKRIDVQGEKIHADIEIRGRYNGQEINTESHIVFKKINGQWIIEEVEFK	1.6
SEEDKEFEDLIKFWIHLLETGDFDTLRDLADPHVRVTIDGRDLHGREILLTFWEKVKNIKLDLKSIRVINGVVIMHGDTNFDGKRSHVELHIKKINGRWYITEFRIE	2.25
DEDRRDAEEFIRLFHEAVQTGDEDTLRKFIDPRARIDVNGRILHGREEYLEWMREVLRFFKNVRFEVDLHDVKIVGDKIHVDTTLWTHFNGRDLELKTRVHLEKVNGVWRIKRIDFE	0.77
TEEHEKSEIAVELIIRTLVTGDEELMNKLIDPHVRIEFENRELVGRETYTKIYSRELRELGWEFVTTELRHIETQGEKVELQGDLVINGKRIKVHLYFHKYNGVWFLKRVHYE	1.19
DEEEERVIHIMHLFLEHISTGDEDKVKHLMDPNVRVFIGNKQHVGMHEIIKHLREWRIELDDVRTEEVRIQGDKLHLNGRLHVTLEFNGRRIRTTVRTTNIFRKVDGRWILEAIHID	1.58
SHVEEEAEHFWEELVRAYKTGDENLLKRLADPNVKVDINGRELIGREEFARVVSEERRQMRSHVELHDIRKDGDKMHINTILRIHIGDKEVSRTTHLHSIKVDGRWRLETWHIV	1.06
DETKEAFDRAIEKLSRWMFTGDEDKVDHLMDPDVRIEQGDKELHGMEDARRYLTEIRVKVRDMKITHMRIYDGRIDIDGETHLEVKVGDKHLHIDTRVYIDSYKVDGRWFFHEIRIK	0.98
DEDHKHWKKLTEILFHVFRTGDWHLLEKLADPNVRTVVNGVEIHGREHLADIMWLHKETLGIDHMELRSIEYQGEKFIIHAEIDVNGRKVDVHIRSVIIDGRMHSISIEVHHH	1.99
DEEREDIEKVTHILSEIWETGDEHRLHRMLDPNTKVVIDGVEIHGRELIIRFRKELRHKLGLDRIEVDIDHIEVQGDKAISDTSIDYNGREFKVINTVHKYNGRWLVHRIIHE	0.815

Sequence	protease stability score
DDYEKSSKVVWQILVRALETGDEEELRDLFDPHVRIQIGEFHFHGWETVHEHMRRADHIIVRDSKSRDIDHQGNKVILHVDLHIEFTYNGVERSTTFRSNMIMVKVNGKWVIEKIHLQ	1.55
DDDEHNAHHAVEIWIHLLRTGDEHMLERMFDPNTRIRFNGREFHGREEAHRFIEELLRTLGVDHSHITIHDMKIQGNKVHVDTRLTLIVGDKTYSRNTHLVILKVNGRWWLHSMHFN	1.41
SELEEYLTYLSKLFVHALITGNEDKYTEEFDPRTRFEMLINGRRIEYHGRESVREFLRHFLEEWRIHHIDTTEIEFIGDKARIHGEQEVHFNGRNITTKVRIDILFYNGKMRDIRIEIE	2.15
DEDKEYLREVLEVLKHMWDTGDERELSKLADPHTRVEINGVKFIGMEEFVRIMQELTKRADHMENRVERNIYQGDYVLVRTRLILKIGEKDFEREVDIFVRKFNGRWLIEELKFH	1.37
DEEDEQLHRFAQLYFEAMVTGDEDLLRHLLDPHVRVHINGRELHGRENMAKWLKDFWDKYKNVQLNLHHIRVIGDKVHMDVEMDVNGREERVHIHVEMIDGVVHSSHHRIE	1.02
DEEEEDMKNMLRIWEETVETGDEHTKERFADPNMRLVVNGVSSHGMESFKTVIKWEHERYDHLKKIEIHRLEFFDGRVIIDGTFTGNIDGVEYKRRIILIMVKVDGRWLLEEVIIH	1.39
TEDERMNKEFHRLIWELIDTGDEETLRKLADPNTRLEVNGKTIIGREEFLSIWKHELHMLGVKHLEIHIRSVMFFENRVENDVELVLHIGEYEERRRIHIFLIKINGKWYHKSERIR	1.46
SEEEEIAHRFRKTVVHALLTGDEDRLRELVDPNYRILIGDKELHGWKSMSEFTHEWRIDHVEIERESVFDGVAHHDIRVDTTVNGKRDTRIVRIIIQKVNGKWVIHSMEIH	0.53
SEDIEHVEEALEMFRETLITGDEEIIRRLIDPHVRIIINGREYHGREAMDHFMKRFDVIHNLHITHWEDINGRMHVHGRIEGNIDGKTDVIETRILVVKVDGQWWFETIRIG	2.27
TEEKHELEKLAKIMFEIIETGDEKTWDELLDPNMRSDVNGVENIGREKVDKAILHYIKRIPNVRIQFTDMHIQGDKVIIRTEVHIGDYREELIIEVVVVNGRFKSFRLTLRRE	1.22
DDKEKHVKRISEILLHTWHTGNEESLNRMFDPEVKVYWNGRELVGRENSSKHLAEEKRRADHVEIEIKDVHVIGNKMIIDGTLRRHIGDYQDESEVHIHIEVVDGRIKRLELRIK	1.1
DEDHDLQEEILKRFEHLFRTGDWKELHHLLDPHARTRWDGRTRHGRDQVLDVMREMGADHLTIHHYNIQGEKIRIDFDLEIGDKRHKLDIHVSKINGKWIVKHIEIDTR	1.03
SEEKKWEDDFMEDFLRAFHTGDFHRLLELLDPHVRIEINFENRKIDLIGREEFEKWMRRVKNARFHVEHWHSINGVNFSDTVLRYGDKEQKTELIFHVYNGKVKHIDVEFH	2.26
DEDEELIEKLLRLEEFAHKTGDERIMEELADPNTRLDINGRREHGMESFIRWLREARYTHFIWRDKIEIGEKMEIQGEVEGTYNGVRHRTEVILFVEKINGRWIIKEIEVR	1.76
DERERDIREWMRIYIEMWETGDEDKLLTMIDPHYREETENEDIHGREQAHKKIKDIKERADHLHIRVHDVDIIDGVAVLDVEILIIIGDKVIRVRTTIIMRKINGKWFIERVHIK	0.235
HEDEKEAEDAVREFLHNVSTGDEERMLELMDPNARLIYNGREYHGRELITHLIRELGVKVVRWRHLEVQGEKVHVDLRDTVGDKTIKTHLIFHKINGKWKVDEVKFD	2.26
DDSAKWTEIALKIKSHDSDTGNEEKIRRLLDPNVRIEINGQEIHGRDKISKWLSEIRIQIEHVDTERYELQGNKAIVDGRMHIKVSYGDKEMHFDIKFEIEVHKVDGQWLIHSERII	0.754
SEEDKHHETLARLIIEALTTGDEESLMHLMDPNARIQIGDKDNHGWRSLHIHHRELGIDHKEIRVREVRFVNGKIHIDSQVHFHFNGVTFDVRTHIILVVINGKLTKMWVIIG	0.363
DEDKEIAKKAIEDLLRAWYTGDEEFLKNLVDPNVRSNFDGVDYHGRDEVEKFWHDHLRDLGADHVEFSLHELRIYGDKIILHTKIKFNVNGREIRRETEVISRKIDGRWLIKEIHFR	1.42
SEDEELVERALQEFLEHLETGDFETLRDQVDPNARVDIDGRERIGRHDILKHWEEWRWHEIKLKHVEFQGDFVHLDGKVRITIDGKEISTHVKILVYKVNGRWLMKELRIG	2.27
HEQDEAWDVINRDLAQSIETGDEHTERELLDPNVRIDFDGVKLHGRDEWHDFVRKELEHLGVDRIDIRIEIHNSKYQGEKVDSDTELKIRYGDKHVRIKTRLILHKIDGRWLVKSIQIN	1.1
SEEVEEAVTKMRHIWEHFLTGDEDTLKELVDPTVRLEQGDKEYHGRDFYIKYSEHIRRRFKNLKIIERDMKFTVYNGKAQMQFDGELRVGDKSTEVVIFLHMRKIDGRWFIEAERIEIR	1.38
TEEHREIKESVEQWHKDLHTGNEEMLVRLMDPRMRLQIGDKTLHGREEATRWAREFHKRYDHIHDFKIKDYDHYGNYIIIIGTLDGIVDGQRVRTDVRLIFVKVNGRWTIESEEHE	0.346
SEDEEMSKEASEWMLEIILTGDEDSLRKLLDPDYRLHVDGQEFHGRENVVKAFMEWLQRFGIKHIHLEDTRIEVQGDKVIVHERTHVDVNGKKTETELFLIALKFDGKWMTHSIEIRYE	2.09
SEDEKMFKEMKDLLLEILRTGDEDSWSHLADPDYRMDINGRIDHGMEEASRSLTEFLRKLGIDHLDIKDSKVTLVNGRAIIILHEETKVNGRKFNLRIINIVSKVNGKWSIESFSMSIE	1.29

Reference: the NTF2 design screens of Basanta et al. (2020)
